Results as given in article PMC6930887.
Where “and” joins values, the source holds several entries; their conditions need not be identical. Equal entries are not always repeated.

Target: T1, endogenously expressed σ1R of mouse brain cortex (mouse (endogenous in brain cortex)), O55242
T1 chain: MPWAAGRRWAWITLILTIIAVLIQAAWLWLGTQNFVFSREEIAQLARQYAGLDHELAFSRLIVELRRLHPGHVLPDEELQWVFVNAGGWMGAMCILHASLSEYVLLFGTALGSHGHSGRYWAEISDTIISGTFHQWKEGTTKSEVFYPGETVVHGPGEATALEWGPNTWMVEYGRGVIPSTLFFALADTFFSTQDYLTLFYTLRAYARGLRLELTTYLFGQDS
Assay: SDS-PAGE western blot without heat denaturation; mouse brain cortex homogenised in lysis buffer, samples kept on ice, same protocol as for the transfected cells
Conditions: remark: other sources report otherwise

- stoichiometry N: 2 and 4
B1: endogenously expressed σ1R of mouse brain cortex, O55242 1-223 (receptor)
chain: MPWAAGRRWAWITLILTIIAVLIQAAWLWLGTQNFVFSREEIAQLARQYAGLDHELAFSRLIVELRRLHPGHVLPDEELQWVFVNAGGWMGAMCILHASLSEYVLLFGTALGSHGHSGRYWAEISDTIISGTFHQWKEGTTKSEVFYPGETVVHGPGEATALEWGPNTWMVEYGRGVIPSTLFFALADTFFSTQDYLTLFYTLRAYARGLRLELTTYLFGQDS
